{"source": "paper PMC4800742", "target": "T1, RanGAP1 (human, UniProt P46060 1-587)", "T1 sequence": "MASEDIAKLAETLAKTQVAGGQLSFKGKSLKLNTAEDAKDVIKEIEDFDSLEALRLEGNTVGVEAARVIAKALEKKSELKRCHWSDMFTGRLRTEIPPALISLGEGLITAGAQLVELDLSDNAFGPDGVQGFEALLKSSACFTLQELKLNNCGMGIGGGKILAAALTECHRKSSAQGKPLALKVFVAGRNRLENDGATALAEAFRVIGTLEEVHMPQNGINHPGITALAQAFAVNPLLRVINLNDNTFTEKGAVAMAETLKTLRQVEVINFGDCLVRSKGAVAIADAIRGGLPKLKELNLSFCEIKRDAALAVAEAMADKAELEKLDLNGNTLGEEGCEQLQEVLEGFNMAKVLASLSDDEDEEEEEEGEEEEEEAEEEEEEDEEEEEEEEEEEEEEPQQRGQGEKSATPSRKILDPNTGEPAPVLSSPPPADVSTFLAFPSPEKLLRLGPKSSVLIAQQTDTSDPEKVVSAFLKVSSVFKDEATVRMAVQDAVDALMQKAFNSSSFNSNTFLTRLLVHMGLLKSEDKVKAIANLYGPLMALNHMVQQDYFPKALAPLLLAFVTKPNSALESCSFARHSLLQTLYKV", "experiment": "EMSA", "data": [{"binder": "GGGGCCGGGGCCGGGGCCGGGGCC (structured_RNA)", "note": "[(G4C2)4 G-quadruplex]", "values": [{"measurement": "apparent K (half saturation)", "result": 162, "unit": "nM"}]}]}
